In assay [1] the target is Strep-tagged glucose-6-phosphate dehydrogenase (G6PDH) from Synechocystis (Synechocystis sp. PCC 6803) (UniProt P73411).
The target is the same in assay [2]. The experiment in a line: SEC-MALS.

Strep-tagged glucose-6-phosphate dehydrogenase (G6PDH) from Synechocystis (Synechocystis sp. PCC 6803), sequence (P73411 whole entry): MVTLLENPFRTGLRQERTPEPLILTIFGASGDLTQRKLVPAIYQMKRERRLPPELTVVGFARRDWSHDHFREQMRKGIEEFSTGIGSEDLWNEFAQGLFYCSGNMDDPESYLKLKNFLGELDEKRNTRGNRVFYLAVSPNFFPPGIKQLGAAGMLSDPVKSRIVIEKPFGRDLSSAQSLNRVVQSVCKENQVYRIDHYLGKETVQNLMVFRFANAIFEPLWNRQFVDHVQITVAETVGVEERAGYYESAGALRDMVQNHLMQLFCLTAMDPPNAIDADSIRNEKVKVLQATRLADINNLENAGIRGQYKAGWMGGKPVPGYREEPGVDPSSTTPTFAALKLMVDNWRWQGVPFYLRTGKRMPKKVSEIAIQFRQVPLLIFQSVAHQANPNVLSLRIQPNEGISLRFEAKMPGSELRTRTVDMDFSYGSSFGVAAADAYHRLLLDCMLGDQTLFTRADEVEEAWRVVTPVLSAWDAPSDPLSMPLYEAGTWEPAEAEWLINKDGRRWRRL

In assay [1], “Strep-tagged oxidative pentose phosphate cycle protein (OpcA) from Synechocystis (natural protein)” yielded a G6PDH activity after pre-incubation of OpcA with DTTred, compared to the control of 30%; a G6PDH activity after pre-incubation of OpcA with Synechocystis thioredoxin TxrA of 10%; a G6PDH enzyme kinetics: substrate affinity with OpcA added of 6 fold. Also, the stoichiometry N (subunits of OpcA per G6PDH tetramer) in assay [2] was 4.

The values above are taken from article doi:10.1101/2021.04.15.439997.
